This note sets out measurements from patent US20250388666A1 (BRIGHAM AND WOMEN S HOSPITAL, published 2025).

B1: He6/L17 (antibody, IgG4, V domains shown)
VH: EVQLLESGGGLVQPGGSLRLSCAASGFSFSDYYLYWVRQAPGKGLEWVATISVGGGQTSYADSVKGRFTISRDNSKNTLYLQMNSLRAEDTAMYYCARARTYGPAWFAYWGQGTLVTVSS
VL: DIVMTQSPDSLAVSLGERATINCKSSQSLLNSANQKNYLAWYQQKPGQPPKLLIYFASTRESGVPDRFSGSGSGTDFTLTISSLQAEDVAVYYCQSHYPYPYTFGGGTKVEIK
notes: IgG4 S241P, kappa
B2: He9/L20 (antibody, IgG4, V domains shown)
VH: EVQLLESGGGLVQPGGSLRLSCAASGFSFSDYYLYWVRQAPGKGLEWVATISVGGGQTSYADSVKGRFTISRDNSKNTLYLQMNSLRAEDTAMYYCARAMYYGPAWFAYWGQGTLVTVSS
VL: DIVMTQSPDSLAVSLGERATINCKSSQSLLNSANQKNYLAWYQQKPGQPPKLLIYFASTRESGVPDRFSGSGSGTDFTLTISSLQAEDVAVYYCQSHFPYPLTFGGGTKVEIK
notes: IgG4 S241P, kappa
B3: He9/L19 (antibody, IgG4, V domains shown)
VH: EVQLLESGGGLVQPGGSLRLSCAASGFSFSDYYLYWVRQAPGKGLEWVATISVGGGQTSYADSVKGRFTISRDNSKNTLYLQMNSLRAEDTAMYYCARAMYYGPAWFAYWGQGTLVTVSS
VL: DIVMTQSPDSLAVSLGERATINCKSSQSLLNSANQKNYLAWYQQKPGQPPKLLIYFASTRESGVPDRFSGSGSGTDFTLTISSLQAEDVAVYYCQSHIYPNFTFGGGTKVEIK
notes: IgG4 S241P, kappa
B4: He9/L5 (antibody, IgG4, V domains shown)
VH: EVQLLESGGGLVQPGGSLRLSCAASGFSFSDYYLYWVRQAPGKGLEWVATISVGGGQTSYADSVKGRFTISRDNSKNTLYLQMNSLRAEDTAMYYCARAMYYGPAWFAYWGQGTLVTVSS
VL: DIVMTQSPDSLAVSLGERATINCKSSQSLLNSANQKNYLAWYQQKPGQPPKLLIYFASTRESGVPDRFSGSGSGTDFTLTISSLQAEDVAVYYCQSHYPFAFTFGGGTKVEIK
notes: IgG4 S241P, kappa
B5: He6/L20 (antibody, IgG4, V domains shown)
VH: EVQLLESGGGLVQPGGSLRLSCAASGFSFSDYYLYWVRQAPGKGLEWVATISVGGGQTSYADSVKGRFTISRDNSKNTLYLQMNSLRAEDTAMYYCARARTYGPAWFAYWGQGTLVTVSS
VL: DIVMTQSPDSLAVSLGERATINCKSSQSLLNSANQKNYLAWYQQKPGQPPKLLIYFASTRESGVPDRFSGSGSGTDFTLTISSLQAEDVAVYYCQSHFPYPLTFGGGTKVEIK
notes: IgG4 S241P, kappa
B6: He9/L16 (antibody, IgG4, V domains shown)
VH: EVQLLESGGGLVQPGGSLRLSCAASGFSFSDYYLYWVRQAPGKGLEWVATISVGGGQTSYADSVKGRFTISRDNSKNTLYLQMNSLRAEDTAMYYCARAMYYGPAWFAYWGQGTLVTVSS
VL: DIVMTQSPDSLAVSLGERATINCKSSQSLLNSANQKNYLAWYQQKPGQPPKLLIYFASTRESGVPDRFSGSGSGTDFTLTISSLQAEDVAVYYCQSHYPYPFTFGGGTKVEIK
notes: IgG4 S241P, kappa
B7: He9/L1 (antibody, IgG4, V domains shown)
VH: EVQLLESGGGLVQPGGSLRLSCAASGFSFSDYYLYWVRQAPGKGLEWVATISVGGGQTSYADSVKGRFTISRDNSKNTLYLQMNSLRAEDTAMYYCARAMYYGPAWFAYWGQGTLVTVSS
VL: DIVMTQSPDSLAVSLGERATINCKSSQSLLNSANQKNYLAWYQQKPGQPPKLLIYFASTRESGVPDRFSGSGSGTDFTLTISSLQAEDVAVYYCQSHYPFYYTFGGGTKVEIK
notes: IgG4 S241P, kappa
B8: He6/L19 (antibody, IgG4, V domains shown)
VH: EVQLLESGGGLVQPGGSLRLSCAASGFSFSDYYLYWVRQAPGKGLEWVATISVGGGQTSYADSVKGRFTISRDNSKNTLYLQMNSLRAEDTAMYYCARARTYGPAWFAYWGQGTLVTVSS
VL: DIVMTQSPDSLAVSLGERATINCKSSQSLLNSANQKNYLAWYQQKPGQPPKLLIYFASTRESGVPDRFSGSGSGTDFTLTISSLQAEDVAVYYCQSHIYPNFTFGGGTKVEIK
notes: IgG4 S241P, kappa
B9: He9/L4 #1 (antibody, IgG4, V domains shown)
VH: EVQLLESGGGLVQPGGSLRLSCAASGFSFSDYYLYWVRQAPGKGLEWVATISVGGGQTSYADSVKGRFTISRDNSKNTLYLQMNSLRAEDTAMYYCARAMYYGPAWFAYWGQGTLVTVSS
VL: DIVMTQSPDSLAVSLGERATINCKSSQSLLNSANQKNYLAWYQQKPGQPPKLLIYFASTRESGVPDRFSGSGSGTDFTLTISSLQAEDVAVYYCQSHFPYYYTFGGGTKVEIK
notes: IgG4 S241P, kappa
B10: He13/L2 (antibody, IgG4, V domains shown)
VH: EVQLLESGGGLVQPGGSLRLSCAASGFSFSDYYLYWVRQAPGKGLEWVATISVGGGQTSYADSVKGRFTISRDNSKNTLYLQMNSLRAEDTAMYYCTRGLYYGPSWLAYWGQGTLVTVSS
VL: DIVMTQSPDSLAVSLGERATINCKSSQSLLNSANQKNYLAWYQQKPGQPPKLLIYFASTRESGVPDRFSGSGSGTDFTLTISSLQAEDVAVYYCQSHYPFPYTFGGGTKVEIK
notes: IgG4 S241P, kappa
B11: He9/L18 (antibody, IgG4, V domains shown)
VH: EVQLLESGGGLVQPGGSLRLSCAASGFSFSDYYLYWVRQAPGKGLEWVATISVGGGQTSYADSVKGRFTISRDNSKNTLYLQMNSLRAEDTAMYYCARAMYYGPAWFAYWGQGTLVTVSS
VL: DIVMTQSPDSLAVSLGERATINCKSSQSLLNSANQKNYLAWYQQKPGQPPKLLIYFASTRESGVPDRFSGSGSGTDFTLTISSLQAEDVAVYYCQSHFPYPFTFGGGTKVEIK
notes: IgG4 S241P, kappa
B12: He13/L1 (antibody, IgG4, V domains shown)
VH: EVQLLESGGGLVQPGGSLRLSCAASGFSFSDYYLYWVRQAPGKGLEWVATISVGGGQTSYADSVKGRFTISRDNSKNTLYLQMNSLRAEDTAMYYCTRGLYYGPSWLAYWGQGTLVTVSS
VL: DIVMTQSPDSLAVSLGERATINCKSSQSLLNSANQKNYLAWYQQKPGQPPKLLIYFASTRESGVPDRFSGSGSGTDFTLTISSLQAEDVAVYYCQSHYPFYYTFGGGTKVEIK
notes: IgG4 S241P, kappa
B13: He6/L18 (antibody, IgG4, V domains shown)
VH: EVQLLESGGGLVQPGGSLRLSCAASGFSFSDYYLYWVRQAPGKGLEWVATISVGGGQTSYADSVKGRFTISRDNSKNTLYLQMNSLRAEDTAMYYCARARTYGPAWFAYWGQGTLVTVSS
VL: DIVMTQSPDSLAVSLGERATINCKSSQSLLNSANQKNYLAWYQQKPGQPPKLLIYFASTRESGVPDRFSGSGSGTDFTLTISSLQAEDVAVYYCQSHFPYPFTFGGGTKVEIK
notes: IgG4 S241P, kappa
B14: He9/Parent VL (antibody, IgG4, V domains shown)
VH: EVQLLESGGGLVQPGGSLRLSCAASGFSFSDYYLYWVRQAPGKGLEWVATISVGGGQTSYADSVKGRFTISRDNSKNTLYLQMNSLRAEDTAMYYCARAMYYGPAWFAYWGQGTLVTVSS
VL: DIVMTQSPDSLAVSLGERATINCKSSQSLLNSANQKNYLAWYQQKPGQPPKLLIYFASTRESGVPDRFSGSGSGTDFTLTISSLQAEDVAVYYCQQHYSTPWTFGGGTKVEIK
notes: IgG4 S241P, kappa
B15: He9/L2 (antibody, IgG4, V domains shown)
VH: EVQLLESGGGLVQPGGSLRLSCAASGFSFSDYYLYWVRQAPGKGLEWVATISVGGGQTSYADSVKGRFTISRDNSKNTLYLQMNSLRAEDTAMYYCARAMYYGPAWFAYWGQGTLVTVSS
VL: DIVMTQSPDSLAVSLGERATINCKSSQSLLNSANQKNYLAWYQQKPGQPPKLLIYFASTRESGVPDRFSGSGSGTDFTLTISSLQAEDVAVYYCQSHYPFPYTFGGGTKVEIK
notes: IgG4 S241P, kappa
B16: He6/Parent VL (antibody, IgG4, V domains shown)
VH: EVQLLESGGGLVQPGGSLRLSCAASGFSFSDYYLYWVRQAPGKGLEWVATISVGGGQTSYADSVKGRFTISRDNSKNTLYLQMNSLRAEDTAMYYCARARTYGPAWFAYWGQGTLVTVSS
VL: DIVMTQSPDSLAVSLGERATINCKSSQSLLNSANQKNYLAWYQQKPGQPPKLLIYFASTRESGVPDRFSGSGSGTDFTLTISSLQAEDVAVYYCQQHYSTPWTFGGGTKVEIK
notes: IgG4 S241P, kappa

This test has as its target T1, CEACAM1 (Sino Biological) (human, UniProt P13688 35-428, limits assumed).
T1 construct: may be the same as CEACAM1-HIS; also called hCEACAM1; biotinylated soluble CEACAM1
T1 sequence: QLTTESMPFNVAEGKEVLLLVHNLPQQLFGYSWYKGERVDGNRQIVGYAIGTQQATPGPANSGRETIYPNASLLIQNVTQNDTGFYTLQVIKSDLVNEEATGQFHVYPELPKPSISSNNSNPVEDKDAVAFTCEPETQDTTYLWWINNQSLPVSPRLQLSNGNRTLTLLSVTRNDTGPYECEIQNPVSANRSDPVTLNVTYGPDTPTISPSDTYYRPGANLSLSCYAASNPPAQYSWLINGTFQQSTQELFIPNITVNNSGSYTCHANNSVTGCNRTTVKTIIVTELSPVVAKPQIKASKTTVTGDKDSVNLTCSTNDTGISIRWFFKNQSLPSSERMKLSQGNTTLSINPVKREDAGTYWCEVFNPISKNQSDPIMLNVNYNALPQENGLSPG
The experiment in a line: SPR single-cycle. As for the experimental part: To assess the binding of the humanized affinity matured IgGs, single cycle kinetics analysis was performed on crude supernatants using a Biacore T200 running Biacore T200 Control Software V2.0.1 and Biacore T200 Evaluation Software V3.0 (Uppsala, Sweden). Antibodies were diluted in HBS-P+ (GE Healthcare) to a final concentration of […]. At the start of each cycle, antibodies were loaded onto Fc2, Fc3 and Fc4 of the Protein A chip (GE Healthcare). IgGs were captured at a flow rate of 10 μl/min to give an immobilization level (RL) of ˜100 RU (a level calculated to obtain an Rmax of ˜50-150 RU once the analyte is bound). The surface was then allowed to stabilize. Single cycle kinetics data was obtained with CEACAM1 as the analyte at a flow rate of […] to minimize any potential mass transfer effects. Multiple repeats with the parent (VH2 N56Q/Vκ4 S27(f)A) antibody were performed to check the stability of the surface and analyte over the kinetic cycles. The signal from the reference channel Fc1 (no antibody) was subtracted from that of Fc2, Fc3 and Fc4 to correct for differences in non-specific binding to the reference surface. A three point, two-fold dilution range from 25 nM to 100 nM CEACAM 1 without regeneration between each concentration was used. The signal from each antibody blank run (no CEACAM1) was subtracted to correct for differences in surface stability. The association phase for the three injections of increasing concentrations of CEACAM1 was monitored for 200 seconds each time and a single dissociation phase was measured for 300 seconds following the last injection of CEACAM1. Regeneration of the Protein A surface was conducted using two injections of 10 mM glycine-HCL pH 1.5 followed by a stabilization period of 240 seconds.
Turning to B1, the affinity, expressed as Kd, was 91 nM and the “fold better than Parent (KD)” value is 1.75 fold.
The like results for B2 were, in that order, 44 nM and 3.61 fold.
The like results for B3 were, in that order, 193 nM and 0.82 fold.
The like results for B4 were, in that order, 44 nM and 3.61 fold.
As to B5, the dissociation constant (Kd) was determined as 89 nM and the “fold better than Parent (KD)” value was 1.79 fold.
The like results for B6 were, in that order, 32 nM and 5.05 fold.
The like results for B7 were, in that order, 69 nM and 2.32 fold.
The like results for B8 were, in that order, 237 nM and 0.67 fold.
For B9, binding was characterised by a dissociation constant (Kd) of 78 nM and the “fold better than Parent (KD)” value stood at 2.05 fold.
The like results for B10 were, in that order, 98 nM and 1.62 fold.
The like results for B11 were, in that order, 36 nM and 4.4 fold.
On to B12, for which the Kd was found to be 126 nM and the “fold better than Parent (KD)” value turned out to be 1.26 fold.
Regarding B13, the Kd came to 83 nM and the “fold better than Parent (KD)” value was 1.92 fold.
For B14, the dissociation constant Kd came to 262 nM and the “fold better than Parent (KD)” value worked out at 0.61 fold.
The like results for B15 were, in that order, 70 nM and 2.27 fold.
The like results for B16 were, in that order, 125 nM and 1.27 fold.
